The values below come from patent US20250282881A1 (SHANGHAI EPIMAB BIOTHERAPEUTICS, published 2025).

Sequences and labels used below:
T1: recombinant human OX40/His fusion protein (Novoprotein, CB17) (human, UniProt P43489 29-216)
T1 construct: Bought protein
T1 sequence: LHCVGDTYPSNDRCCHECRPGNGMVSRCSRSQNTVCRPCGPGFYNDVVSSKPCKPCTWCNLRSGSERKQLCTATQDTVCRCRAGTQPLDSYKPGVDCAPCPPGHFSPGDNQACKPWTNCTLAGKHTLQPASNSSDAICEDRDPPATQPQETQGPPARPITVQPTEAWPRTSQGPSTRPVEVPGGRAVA

B1: HuEM1007-044-6 (antibody, human IgG1, kappa, L234A L235A, V domains shown)
VH: EVQLVQSGAEVKKPGSSVKVSCKASGHTFSSSWMNWVRQAPGQGLEWMGRIYPGDEITNYNGKFKDRVTITADKSTSTAYMELSSLRSEDTAVYYCARDLLMPYWGQGTLVTVSS
VL: DIVMTQTPLSLPVTPGEPASISCRSSKSLLYSNGITYLYWYLQKPGQSPQLLIYQMSNLAPGVPDRFSSSGSGTDFTLKISRVEAEDVGVYYCAQNLELPFTFGQGTKLEIKR
notes: Humanized anti-OX40, human IgG1 LALA / kappa
B2: HuEM1007-044-1 (antibody, human IgG1, kappa, L234A L235A, V domains shown)
VH: EVQLVQSGAEVKKPGSSVKVSCKASGGTFSSSWMNWVRQAPGQGLEWMGRIYPGDEITNYNGKFKDRVTITADKSTSTAYMELSSLRSEDTAVYYCARDLLMPYWGQGTLVTVSS
VL: DIVMTQTPLSLPVTPGEPASISCRSSKSLLYSNGITYLYWYLQKPGQSPQLLIYQMSNLAPGVPDRFSGSGSGTDFTLKISRVEAEDVGVYYCAQNLELPFTFGQGTKLEIKR
notes: as for B1
B3: HuEM1007-044-3 (antibody, human IgG1, kappa, L234A L235A, V domains shown)
VH: EVQLVQSGAEVKKPGSSVKVSCKASGHTFSSSWMNWVRQAPGQGLEWIGRIYPGDEITNYNGKFKDRVTLTADKSTSTAYMELSSLRSEDTAVYYCARDLLMPYWGQGTLVTVSS
VL: DIVMTQTPLSLPVTPGEPASISCRSSKSLLYSNGITYLYWYLQKPGQSPQLLIYQMSNLAPGVPDRFSGSGSGTDFTLKISRVEAEDVGVYYCAQNLELPFTFGQGTKLEIKR
notes: as for B1
B4: HuEM1007-044-2 (antibody, human IgG1, kappa, L234A L235A, V domains shown)
VH: EVQLVQSGAEVKKPGSSVKVSCKASGHTFSSSWMNWVRQAPGQGLEWMGRIYPGDEITNYNGKFKDRVTITADKSTSTAYMELSSLRSEDTAVYYCARDLLMPYWGQGTLVTVSS
VL: DIVMTQTPLSLPVTPGEPASISCRSSKSLLYSNGITYLYWYLQKPGQSPQLLIYQMSNLAPGVPDRFSGSGSGTDFTLKISRVEAEDVGVYYCAQNLELPFTFGQGTKLEIKR
notes: as for B1
B5: HuEM1007-044-5 (antibody, human IgG1, kappa, L234A L235A, V domains shown)
VH: EVQLVQSGAEVKKPGSSVKVSCKASGGTFSSSWMNWVRQAPGQGLEWMGRIYPGDEITNYNGKFKDRVTITADKSTSTAYMELSSLRSEDTAVYYCARDLLMPYWGQGTLVTVSS
VL: DIVMTQTPLSLPVTPGEPASISCRSSKSLLYSNGITYLYWYLQKPGQSPQLLIYQMSNLAPGVPDRFSSSGSGTDFTLKISRVEAEDVGVYYCAQNLELPFTFGQGTKLEIKR
notes: as for B1
B6: EM1007-mAb044c-9 (antibody, human IgG1, kappa, L234A L235A, V domains shown)
VH: QVQLQQSGPELVKPGASVTISCKASGHAFSSSWMNWVKQRPGKGLEWIGRIYPGDEITNYNAKFKDKATLTADKSSSTAYMQLSSLTFEDSAVYFCARDLLMPYWGQGTLVTVSA
VL: DIVMTQTAFSNPVTLGTSASISCRSSKSLLYSNGITYLYWYLQKPGQSPHLLIYQMSNLAPGVPDRFSSSGSGTDFTLRISRVEAEDVGIYYCAQNLELPFTFGSGTKLEIKR
B7: EM1007-mAb044c-10 (antibody, human IgG1, kappa, L234A L235A, V domains shown)
VH: QVQLQQSGPELVKPGASVTISCKASGHAFSSSWMNWVKQRPGKGLEWIGRIYPGDEITNYNGKFKDKATLTADKSSSTAYMQLSSLTFEDSAVYFCARDLLMPYWGQGTLVTVSA
VL: DIVMTQTAFSNPVTLGTSASISCRSSKSLLYSNAITYLYWYLQKPGQSPHLLIYQMSNLAPGVPDRFSSSGSGTDFTLRISRVEAEDVGIYYCAQNLELPFTFGSGTKLEIKR
B8: EM1007-mAb044c-12 (antibody, human IgG1, kappa, L234A L235A, V domains shown)
VH: QVQLQQSGPELVKPGASVTISCKASGHAFSSSWMNWVKQRPGKGLEWIGRIYPGDEITNYNGKFKDKATLTADKSSSTAYMQLSSLTFEDSAVYFCARDLLMPYWGQGTLVTVSA
VL: DIVMTQTPLSLPVTPGEPASISCRSSKSLLYSNGITYLYWYLQKPGQSPQLLIYQMSNLAPGVPDRFSGSGSGTDFTLKISRVEAEDVGVYYCAQNLELPFTFGQGTKLEIKR
B9: HuEM1007-044-8 (antibody, human IgG1, kappa, L234A L235A, V domains shown)
VH: EVQLVQSGAEVKKPGSSVKVSCKASGHTFSSSWMNWVKQAPGKGLEWIGRIYPGDEITNYNGKFKDKVTLTADKSTSTAYMELSSLRSEDTAVYYCARDLLMPYWGQGTLVTVSS
VL: DIVMTQTPLSLPVTPGEPASISCRSSKSLLYSNGITYLYWYLQKPGQSPQLLIYQMSNLAPGVPDRFSSSGSGTDFTLKISRVEAEDVGVYYCAQNLELPFTFGQGTKLEIKR
notes: as for B1
B10: HuEM1007-044-7 (antibody, human IgG1, kappa, L234A L235A, V domains shown)
VH: EVQLVQSGAEVKKPGSSVKVSCKASGHTFSSSWMNWVRQAPGQGLEWIGRIYPGDEITNYNGKFKDRVTLTADKSTSTAYMELSSLRSEDTAVYYCARDLLMPYWGQGTLVTVSS
VL: DIVMTQTPLSLPVTPGEPASISCRSSKSLLYSNGITYLYWYLQKPGQSPQLLIYQMSNLAPGVPDRFSSSGSGTDFTLKISRVEAEDVGVYYCAQNLELPFTFGQGTKLEIKR
notes: as for B1
B11: EM1007-mAb044c-11 (antibody, human IgG1, kappa, L234A L235A, V domains shown)
VH: QVQLQQSGPELVKPGASVTISCKASGHAFSSSWMNWVKQRPGKGLEWIGRIYPGDEITNYNAKFKDKATLTADKSSSTAYMQLSSLTFEDSAVYFCARDLLMPYWGQGTLVTVSA
VL: DIVMTQTAFSNPVTLGTSASISCRSSKSLLYSNAITYLYWYLQKPGQSPHLLIYQMSNLAPGVPDRFSSSGSGTDFTLRISRVEAEDVGIYYCAQNLELPFTFGSGTKLEIKR
B12: HuEM1007-044-4 (antibody, human IgG1, kappa, L234A L235A, V domains shown)
VH: EVQLVQSGAEVKKPGSSVKVSCKASGHTFSSSWMNWVKQAPGKGLEWIGRIYPGDEITNYNGKFKDKVTLTADKSTSTAYMELSSLRSEDTAVYYCARDLLMPYWGQGTLVTVSS
VL: DIVMTQTPLSLPVTPGEPASISCRSSKSLLYSNGITYLYWYLQKPGQSPQLLIYQMSNLAPGVPDRFSGSGSGTDFTLKISRVEAEDVGVYYCAQNLELPFTFGQGTKLEIKR
notes: as for B1
B13: EM1007-mAb044c-13 (antibody, human IgG1, kappa, L234A L235A, V domains shown)
VH: EVQLVQSGAEVKKPGSSVKVSCKASGGTFSSSWMNWVRQAPGQGLEWMGRIYPGDEITNYNGKFKDRVTITADKSTSTAYMELSSLRSEDTAVYYCARDLLMPYWGQGTLVTVSS
VL: DIVMTQTAFSNPVTLGTSASISCRSSKSLLYSNGITYLYWYLQKPGQSPHLLIYQMSNLAPGVPDRFSSSGSGTDFTLRISRVEAEDVGIYYCAQNLELPFTFGSGTKLEIKR
B14: EM1007-mAb044c-17 (antibody, human IgG1, kappa, L234A L235A, V domains shown)
VH: EVQLQQSGAEVKKPGSSVKVSCKASGHAFSSSWMNWVKQRPGKGLEWIGRIYPGDEITNYNAKFKDKATLTADKSTSTAYMELSSLRSEDTAVYYCARDLLMPYWGQGTLVTVSS
VL: DIVMTQTAFSNPVTLGTSASISCRSSKSLLYSNAITYLYWYLQKPGQSPHLLIYQMSNLAPGVPDRFSSSGSGTDFTLRISRVEAEDVGIYYCAQNLELPFTFGSGTKLEIKR
B15: EM1007-mAb044c-15 (antibody, human IgG1, kappa, L234A L235A, V domains shown)
VH: EVQLVQSGAEVKKPGSSVKVSCKASGGTFSSSWMNWVRQRPGKGLEWMGRIYPGDEITNYNAKFKDRVTITADKSTSTAYMELSSLRSEDTAVYYCARDLLMPYWGQGTLVTVSS
VL: DIVMTQTAFSNPVTLGTSASISCRSSKSLLYSNAITYLYWYLQKPGQSPHLLIYQMSNLAPGVPDRFSSSGSGTDFTLRISRVEAEDVGIYYCAQNLELPFTFGSGTKLEIKR
B16: HuEM1007-044-14 (antibody, human IgG1, kappa, L234A L235A, V domains shown)
VH: EVQLVQSGAEVKKPGSSVKVSCKASGGTFSSSWMNWVRQRPGKGLEWMGRIYPGDEITNYNAKFKDRVTITADKSTSTAYMELSSLRSEDTAVYYCARDLLMPYWGQGTLVTVSS
VL: DIVMTQTPLSLPVTPGEPASISCRSSKSLLYSNAITYLYWYLQKPGQSPQLLIYQMSNLAPGVPDRFSSSGSGTDFTLKISRVEAEDVGVYYCAQNLELPFTFGQGTKLEIKR
notes: as for B1

One experiment concerns the target T1, recombinant human OX40/His fusion …. The experiment in a line: BLI (Octet RED96), antibody on AHC sensor, OX40/His as analyte, test group 1. The protocol: (§1) All 17 antibodies in Table 4 were expressed by transient transfection of HEK293 cell, purified by Protein A chromatography, and assayed for and ranked by dissociation rate constant (koff). Briefly, antibodies binding affinities and kinetics were characterized by Octet® RED96 biolayer interferometry (Pall FortéBio LLC). Antibodies were captured by Anti-hIgG Fc Capture (AHC) Biosensors (Pall) at a concentration of 100 nM for 120 seconds. After that, sensors were dipped into running buffer (1× pH 7.2 PBS, 0.05% Tween 20, 0.1% BSA) for 60 seconds to check the baseline, then dipped into recombinant human OX40/His fusion protein (Novoprotein, CB17) at assigned concentration for 200 seconds to measure binding, followed by dipped into running buffer for 600 seconds for dissociation. The assay was conducted in four test groups (as listed in Table 5) all containing the EM1007-044c chimeric antibody as the basis for normalization. The association and dissociation curves were fitted to a 1:1 Langmuir binding model using ForteBio Data Analysis software (Pall) to obtain the off-rate constants as shown in Table 5 below. The off-rate of each antibody was compared to that of the EM1007-mAb044c chimeric antibody in the same test group obtained in parallel to produce the corresponding off-rate ratio, serving as a normalized index. […]
For orientation: BLI is a label-free optical method that tracks binding on a fibre tip over time.
For the molecule B1, the “Normalized Index (off-rate ratio to EM1007-mAb044c)” value was determined as 331% and the koff – broadly, the first-order rate constant of dissociation – worked out at 0.00111 s⁻¹.

As to B2, the “Normalized Index (off-rate ratio to EM1007-mAb044c)” value was found to be 306% and the koff stood at 0.00103 s⁻¹.

For the molecule B3, the “Normalized Index (off-rate ratio to EM1007-mAb044c)” value is 255% and the koff turned out to be 0.000859 s⁻¹.

With B4, the “Normalized Index (off-rate ratio to EM1007-mAb044c)” value was 281% and the koff worked out at 0.000944 s⁻¹.

As for B5, the “Normalized Index (off-rate ratio to EM1007-mAb044c)” value turned out to be 243% and the koff worked out at 0.000818 s⁻¹.

The target is the same in the next experiment. The experiment in a line: BLI (Octet RED96), antibody on AHC sensor, OX40/His as analyte, test group 2. The procedure: as §1
Turning to B6, the “Normalized Index (off-rate ratio to EM1007-mAb044c)” value was determined as 97% and the koff stood at 0.000309 s⁻¹.

B7: the “Normalized Index (off-rate ratio to EM1007-mAb044c)” value is 94% and the koff is 0.000299 s⁻¹.

B8: the “Normalized Index (off-rate ratio to EM1007-mAb044c)” value was found to be 255% and the koff came to 0.00081 s⁻¹.

On to B9, for which the “Normalized Index (off-rate ratio to EM1007-mAb044c)” value was 317% and the koff is 0.00101 s⁻¹.

In the case of B10, the “Normalized Index (off-rate ratio to EM1007-mAb044c)” value was found to be 343% and the koff is 0.00109 s⁻¹.

In the case of B11, the “Normalized Index (off-rate ratio to EM1007-mAb044c)” value stood at 100% and the koff came to 0.000317 s⁻¹.

For a further experiment the target is unchanged. The experiment in a line: BLI (Octet RED96), antibody on AHC sensor, OX40/His as analyte, test group 3. The procedure: as §1
With B12, the “Normalized Index (off-rate ratio to EM1007-mAb044c)” value turned out to be 486% and the koff came to 0.00148 s⁻¹.

Regarding B13, the “Normalized Index (off-rate ratio to EM1007-mAb044c)” value turned out to be 427% and the koff turned out to be 0.0013 s⁻¹.

The target is the same in another experiment. The experiment in a line: BLI (Octet RED96), antibody on AHC sensor, OX40/His as analyte, test group 4. The procedure: as §1
With B14, the “Normalized Index (off-rate ratio to EM1007-mAb044c)” value came out at 92% and the koff was found to be 0.000256 s⁻¹.

For B15, the “Normalized Index (off-rate ratio to EM1007-mAb044c)” value is 340% and the koff was found to be 0.000949 s⁻¹.

In the case of B16, the “Normalized Index (off-rate ratio to EM1007-mAb044c)” value came out at 341% and the koff is 0.000952 s⁻¹.
